Reference: patent publication US20250339382A1, “CORRALLING AMPHIPATHIC PEPTIDE COLLOIDS” (KANSAS STATE UNIVERSITY RESEARCH FOUNDATION, priority 2022, published 2025)
No end group written: not given here. *: point of attachment. methylmercury = [CH3][Hg]*

Columns and labels:
[1] = Particle size and polydispersity by dynamic light scattering (Litesizer 500); format: physicochemical; conditions: for Hydrodynamic Diameter / Polydispersity: colloids produced by the amphipathic sequence in soy oil
Method: (§1) Encapsulation studies-Winterized Soybean oil (Archer Daniel Midlands, Chicago, IL) 50 μL was added to 2 mg of dry peptide and vortexed for 2 min. Deionized distilled-reverse osmosis (DDI-RO) water was added to a final volume of 1 mL. This mixture was sonicated (bath sonicator) for 15 min at 37° C. The generated CAPC are maintained at RT for at least 1 h prior to confocal microscopy. For the solvent/oil encapsulation study reagent grade-Benzene (Sigma-Aldrich, St. Louis, MO), Cyclohexane (Acros Organics, Geel, Belgium), n-Decane (grade 99+%, Sigma-Aldrich, St. Louis), Migloyl® 812N; capric triglyceride (Pharma Grade, IOI Oleo GmbH, Witten, Germany), and Mineral oil paraffin (USP, Thermo-Fisher Scientific, Waltham, MA) and Winterized Soy oil (Archer Daniel Midlands, Chicago, IL) were used. […] prepared using 50 μL of the solvent/oil along with 480 μL of DDI-RO water were sonicated for 15 min. CAPC, 2 mg, was subsequently added and sonicated for 10 min. These samples were measured 24 h thereafter for their size, Zeta potential and their circular dichroism (CD) spectra recorded. Particle size/Zeta potential-The samples were analyzed using a LitesizerTM 500 Particle Size Analyzer (Anton Paar GmbH, Graz, Austria) using an Omega Cuvette at 25° C. The size distribution of the particles was analyzed with the proprietary KalliopeTM v.2.16 software (Anton Paar GmbH, Graz, Austria) using the intensity-weighing model. For the Zeta potential analysis, the suspension used above was diluted to 5-fold in DDI-RO prior to analysis.

[2] = Zeta potential analysis (Litesizer 500); format: physicochemical
Method: as §1

[3] = colloids produced by the amphipathic sequence in soy oil

Substance | Hydrodynamic Diameter [1] [nm] | Polydispersity [1] [%] | Zeta Potential [2, 3] [mV] | average (mean) diameter ([1]; peptide complexed with soy oil droplets, DLS intensity peak) [nm] | Zeta Potential ([2]; peptide complexed with soy oil droplets) [mV]
5(6)-Ac-FLIVI-KKKKK- C-CF (Ac-FLIVIKKKKKC; also: 5(6)-carboxyfluorescein label (C-CF), attachment not given here) | 766 ± 225.0 | 21 ± 4.8 | 25 ± 2.7 |  | 
Ac-FAAAA-KKKKK-CONH2 (Ac-FAAAAKKKKK-NH2) [oligo-alanine peptide] | 681 | 500 | 10.2 |  | 
Ac-FLIVI-KKKKK-C-Me-Hg (Ac-FLIVIKKKKKC(methylmercury)) | 578 ± 96.0 | 25 ± 5.8 | 33 ± 4.0 |  | 
Ac-FLIVI-KKKKK-CO-NH2 (Ac-FLIVIKKKKK-NH2) [Ac-FLIVI-KKKKK-CONH2] | 560 | 20 | 38 | 465 | 44.8
Ac-FLIVIGSII-KKKKK-CONH2 (Ac-FLIVIGSIIKKKKK-NH2) [Ac-FLIVIGSII-KKKKKCONH2] | 300 | 23 | 21 |  | 
Ac-FLLLL-KKKKK-CONH2 (Ac-FLLLLKKKKK-NH2) | 666 | 200 | −0.6 |  | 
Ac-IVFLI-KKKKK-CONH2 (Ac-IVFLIKKKKK-NH2) | 594 | 25 | 25 |  | 
